Laboratory results taken from article PMC2839365 (Biochemical and biophysical research communications, 2010).
Where two headings read alike, the source gives them in different places.

Experiments:
Test in all cases: ITC
[1] = molecular target: βI14-15 T1788A
[2] = molecular target: βI14-15 E1710A
[3] = molecular target: βI14-15 Y1866A
[4] = molecular target: βI14-15 E1708A
[5] = molecular target: βI14-15 D1700A
[6] = molecular target: βI14-15 D1701A
[7] = molecular target: βI14-15 E1784A
[8] = molecular target: βI14-15 D1781A
[9] = molecular target: βI14-15 E1703A
[10] = molecular target: wild type βI-spectrin 14-15 di-repeat
[11] = molecular target: βI14-15 A1867P
[12] = molecular target: βI14-15 T1788A; remark: listed apart in the source

Kd [1]: 5800 nM | Kd [2]: 1700 nM | Kd [3]: 22000 nM | Kd [4]: 430 nM | Kd [5]: 440 nM | Kd [6]: 360 nM | Kd [7]: 43400 nM | Kd [8]: 2100 nM | Kd [9]: 320 nM | Kd [10]: 190 nM | Kd [11]: 14900 nM | Kd [12]: 5730 nM
B1: ZU5 domain of ankyrin (domain or fragment)
chain: FLVSFMVDARGGSMRGSRHNGLRVVIPPRTCAAPTRITCRLVKPQKLSTPPPLAEEEGLASRIIALGPTGAQFLSPVIVEIPHFASHGRGDRELVVLRSENGSVWKEHRSRYGESYLDQILNGMDEELGSLEELEKKRVCRIITTDFPLYFVIMSR
